According to paper PMC11661448, “Molecular basis for plasma membrane recruitment of PI4KA by EFR3” (Science Advances, 2024):

What was measured:
Settings in all cases: both partners purified
[1] = biological target: T1, PI4KA/TTC7B/FAM126A ΔC (PI4KA complex) (human, UniProt P42356 1-2102; Q86TV6 1-843; Q9BYI3 1-308); test: SEC; Superose 6 Increase in 150 mM NaCl, 20 mM imidazole pH 7.0, 5% glycerol, 0.5 mM TCEP; 7.19 uM PI4KA complex with 61.8 uM EFR3A, or 6.78 uM TTC7B-FAM126A with 102.3 uM EFR3A; peaks checked by SDS-PAGE
T1 construct: phosphatidylinositol 4 kinase III alpha (PI4KA), human, full length; TTC7B, human, full length; FAM126A, human, residues 1 to 308 (lacks the disordered C terminus); Dimer of heterotrimers; A His-Strep tag was cleaved with TEV protease; also called PI4KA-TTC7B-FAM126A (1 to 308); PI4KA-TTC7B-FAM126A complex; source: Sf9 (MultiBac baculovirus), co-expressed, purified (HisTrap, StrepTrap, TEV …)

[2] = biological target: T2, TTC7B-FAM126A (1 to 308) (human, UniProt Q86TV6 1-843; Q9BYI3 1-308); test: BLI; His-EFR3A (wild type or mutant) at 200 nM loaded on anti-penta-His tips, dipped in TTC7B-FAM126A (wild type or mutant) at 500 nM; 25°C, 20 mM HEPES pH 7.5, 150 mM NaCl, 0.01% BSA, 0.002% Tween-20; maximum response compared with wild type
T2 construct: N-terminal His10-2x Strep-TEV tag from the pOPT vector, cleaved with TEV; also called TTC7B-FAM126A ΔC; TTC7B-FAM126A dimer; source: E. coli BL21 DE3 C41, co-expressed, purified (HisTrap, StrepTrap, TEV cleavage, SEC)

[3] = biological target: T2, TTC7B-FAM126A (1 to 308); test: BLI; His-MBP-EFR3A (721 to 791) at 200 nM loaded on anti-penta-His tips, TTC7B-FAM126A titrated; His-MBP responses subtracted; 25°C, 20 mM HEPES pH 7.5, 150 mM NaCl, 0.01% BSA, 0.002% Tween-20; KD by one site specific nonlinear regression of the response against concentration

binding result [2] | Binder | further results
– | EFR3A (721 to 791) (domain or fragment, human, UniProt Q14156 721-791, looked up, EFR3A, human, residues 721 to 791; No tag cleavage is described for this protein; it was eluted from StrepTrap with desthiobiotin; also called EFR3A C terminus; EFR3A C terminal fragment; source: E. coli BL21 DE3 C41, purified (HisTrap, StrepTrap, SEC); not shown: His10, N-terminal, kept) SNTEEITFEALKKAIDTSGMEEQEKEKRRLVIEKFQKAPFEEIAAQCESKANLLHDRLAQILELTIRPPPS | binding result [1]: binds
binds | EFR3A (721 to 791) F728A (domain or fragment, human, UniProt Q14156 721-791, looked up, EFR3A, human, residues 721 to 791; source: E. coli BL21 DE3 C41, purified (HisTrap, StrepTrap, SEC); not shown: His10, N-terminal, kept) SNTEEITAEALKKAIDTSGMEEQEKEKRRLVIEKFQKAPFEEIAAQCESKANLLHDRLAQILELTIRPPPS | –
binds | EFR3A (721 to 791) A734R (domain or fragment, human, UniProt Q14156 721-791, looked up, EFR3A, human, residues 721 to 791; source: E. coli BL21 DE3 C41, purified (HisTrap, StrepTrap, SEC); not shown: His10, N-terminal, kept) SNTEEITFEALKKRIDTSGMEEQEKEKRRLVIEKFQKAPFEEIAAQCESKANLLHDRLAQILELTIRPPPS | –
binds | EFR3A (721 to 791) K732E (domain or fragment, human, UniProt Q14156 721-791, looked up, EFR3A, human, residues 721 to 791; source: E. coli BL21 DE3 C41, purified (HisTrap, StrepTrap, SEC); not shown: His10, N-terminal, kept) SNTEEITFEALEKAIDTSGMEEQEKEKRRLVIEKFQKAPFEEIAAQCESKANLLHDRLAQILELTIRPPPS | –
– | His-MBP-EFR3A (721 to 791) (domain or fragment, human, UniProt Q14156 721-791, looked up, source: E. coli BL21 DE3 C41, purified (HisTrap, StrepTrap, SEC); not shown: MBP, N-terminal, kept; His10, N-terminal, kept) SNTEEITFEALKKAIDTSGMEEQEKEKRRLVIEKFQKAPFEEIAAQCESKANLLHDRLAQILELTIRPPPS | Kd [3]: ~23.5 nM
binds | EFR3A (721 to 791) I763A (domain or fragment, human, UniProt Q14156 721-791, looked up, EFR3A, human, residues 721 to 791; source: E. coli BL21 DE3 C41, purified (HisTrap, StrepTrap, SEC); not shown: His10, N-terminal, kept) SNTEEITFEALKKAIDTSGMEEQEKEKRRLVIEKFQKAPFEEAAAQCESKANLLHDRLAQILELTIRPPPS | –
